In US20090005257A1:

Columns and labels:
[1] = biological target: protein A (UniProt P38507); assay: phage ELISA on protein A, heated 80 C against unheated, three data points
[2] = biological target: protein A (UniProt P38507); assay: phage ELISA screen on protein A, heated 80 C against unheated (Section 4); mean of clones with this mutation

Sequence of DP47 F100nV (VH): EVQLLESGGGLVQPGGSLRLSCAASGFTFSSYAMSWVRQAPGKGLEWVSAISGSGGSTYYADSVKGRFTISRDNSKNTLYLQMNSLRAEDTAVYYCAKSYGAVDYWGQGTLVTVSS

| Substance | Refoldability on phage (protein A binding retained after heating) [1] | mean % refolding (pA-ELISA) [2] |
| --- | --- | --- |
| DP47 F100nV | 2% |  |
| DP47 F100nV/Y102S | 2% |  |
| DP47-F27C |  | 56% |
| DP47-G54P |  | 28% |
